Among the data in the RNAGym collection of RNA variant scans (doi:10.7554/elife.80360) are self-cleavage values, retold here.

B1: Hairpin Ribozyme (parent)
chain: GUCCUCUUUCACGUGCGCGUGAAAGAGAGAAGUGAACCAGAGAAACACACGUUGUGGUAUAUUACCUGGUA

Variants of B1 are the subject of the series. Nature of the series: self-cleavage, relative activity (ratio to wild type); higher = more cleavage; co-transcriptional.
Turning to GUCCUCUUUGACGUGCGCGUGAAAGAGAGAAGUGAACCAGAGAACCACACGUUGUGGUAUAUUACCUGGUA, the self-cleavage is 0.114.

With GUUCUCUUUCACGUGCGCGUGAAAGAGAGAAGUGAACCAGAGAAACAUACGUUGUGGUAUAUUACCUGGUA, the self-cleavage was 0.172. Under GUCCUCUUUCACGUGCGCGUGAAAAAGAGAAGUGAACCAGAGAAACACACGUUGUGCUAUAUUACCUGGUA stands 0.0684; under GUCCUCUUUCACGUGCGCGUGAAAGAGAGAAGUGAACCAGAGAGAAACACGUUGUGGUAUAUUACCUGGUA, 0.184; under GUCCACUUUCACGUGCGCGUGAAAGAGAGAAGUGAACCAGAGAAACACACGUUGUGGUCUAUUACCUGGUA, 0.262.

Take GUCCUCUUACACGUGCGCGUGAAAGAGAGAAGUGAACCCGAGAAACACACGUUGUGGUAUAUUACCUGGUA: the self-cleavage turned out to be 0.423.

In the case of GUCCUCUUUCACGUGCGCGUGAAAGAGAGAAGUCAACUAGAGAAACACACGUUGUGGUAUAUUACCUGGUA, the self-cleavage was 1.28. The result for GUCCUCUUUCACGUGCGCGUGGAAGAGAGAAGUGAACCAGAGAAGCACACGUUGUGGUAUAUUACCUGGUA reads 0.115; that for GUCCUCUUUCACGUGCGCGUGAAAGAGAGAAGUGAACCAGAGAAACACACGUUGGGGUAUAUUACCCGGUA, 0.181. As for GUCCUCUUUCACGUGCGCGUGAAAGAGAGAAGUGAACCAGAGAAAUACACGUUGAGGUAUAUUACCUGGUA, the self-cleavage stood at 0.115.

Regarding GUCCUCUUUCACGGGCGCGUGAAAGAGAGAAGUGAACCAGAGAAACAGACGUUGUGGUAUAUUACCUGGUA, the self-cleavage was determined as 0.178. Under GUCCUCUUUCACGUGUGCGUGAAAGAGAGAAUUGAACCAGAGAAACACACGUUGUGGUAUAUUACCUGGUA stands 0.134; under GUCCUCUUUCACGUGCGCGUGAAAGAGACAAGUGAACCAGAGAAACACACGUUGUUGUAUAUUACCUGGUA, 0.0807; under GUCCUCUUUCACGUGCGCGUGAAAGAGAGAAGUGAACCAGAGAAACACACAUCGUGGUAUAUUACCUGGUA, 1.28. Under GUCCUCUUCCACGUGCGCGUGAAAGAGAGAAGUGAACCAGAGAAACACACGUUGUCGUAUAUUACCUGGUA stands 0.158; under GUCCUCUUUGACGUGCGCGUGAAAGAGAGAAGUAAACCAGAGAAACACACGUUGUGGUAUAUUACCUGGUA, 0.978; under GUCCUCUUUCACUUGCGCGUGAAAGAGUGAAGUGAACCAGAGAAACACACGUUGUGGUAUAUUACCUGGUA, 0.546.

As to GUCCUCUGUCACGUGCGCGUGAAAGAGAGAAGUGAACCAGAGAGACACACGUUGUGGUAUAUUACCUGGUA, the self-cleavage turned out to be 0.148. Turning to GUCCUCUUUCACGUGCGCGUGAAAGAGAGGAUUGAACCAGAGAAACACACGUUGUGGUAUAUUACCUGGUA, the self-cleavage worked out at 0.124. Under GUCCUCUAUCACGUGCGCGUGAAAGAGAGAAGUGAACCAGAGAAACACACGUUGUGGUAUGUUACCUGGUA stands 0.0847; under GUCAUCUUUCACGUGCGCGUGAAAGAGAGAAGUGAAUCAGAGAAACACACGUUGUGGUAUAUUACCUGGUA, 0.16. Under GUCCUCUUUCACGUGCGCGUGAAAGAGAGAAGUGAACCAGAGAAACGCACGUUGUGGUAUAGUACCUGGUA stands 0.0586; under GUCCUCUUUCACGUGCGCGUGAAAGAGAGCAGUGAACCAGAGAAACACACGUUGUGGUAUAAUACCUGGUA, 0; under GUCCUCUUUCACGUGCGCGUGAAAGAGAGAAGUGAACCAGAGACACACAAGUUGUGGUAUAUUACCUGGUA, 0.0943. Under GUCCACUUUCACGUGCGCGUGAAAGAGAGUAGUGAACCAGAGAAACACACGUUGUGGUAUAUUACCUGGUA stands 0.263. Consider GUCCUCUUUUACGUGCGCGUGAUAGAGAGAAGUGAACCAGAGAAACACACGUUGUGGUAUAUUACCUGGUA, for which the self-cleavage was 0.652. GUCCUCUUUCACGUACGCGUGAAAGAGAGAAGUGAACCAGAGAAACAGACGUUGUGGUAUAUUACCUGGUA: the self-cleavage came to 0.0967. The result for GUCCUCUUUCACGUCCGCGUGAAAGAGAGAAGUGAACCAGAGAAACACACGUUGUGGUAUAUUACAUGGUA reads 0.144.

As to GUCCUCUUUCACGUGCGCUUGAAAGAGAGAAGUGAACUAGAGAAACACACGUUGUGGUAUAUUACCUGGUA, the self-cleavage was 0.481. Under GUCCUCUUUCACGUGCGCGUGAAAGAGAGAAGUGAACCAGAGAAACACACGUUGCGGUAUAUUACCUGGAA stands 0.143; under GUCCUCUUUCACGUGCGCGUGUAAGAGAGAAGUGAAACAGAGAAACACACGUUGUGGUAUAUUACCUGGUA, 0.352; under GUCCGCUUUCACGUGCGCGUGAAAGAGAGAAGUGAACCAGAGAAACACACGUUGUGGAAUAUUACCUGGUA, 0.272. The result for GUCCUCUCUCACGUGCGCAUGAAAGAGAGAAGUGAACCAGAGAAACACACGUUGUGGUAUAUUACCUGGUA reads 0.302.

For GUGCUCUUUCGCGUGCGCGUGAAAGAGAGAAGUGAACCAGAGAAACACACGUUGUGGUAUAUUACCUGGUA, the self-cleavage is 0.18.

GUCCUCUUUCACGUGCGCGUGAAAGAGAGAAGUGAACCAGAGAAACACACGUUGUGGUAUAUUACCAGGAA: the self-cleavage was 0.237. Under GUCCUCUUUCGCGUGCGCGUGAAAGAGAGAAGUGAAGCAGAGAAACACACGUUGUGGUAUAUUACCUGGUA stands 0.34. Turning to GUCCUCUUUCACGUGCGCGUGAAAGAGAGAAGUGAACCACAGAAACACACGUUGUGGUAUAUUACCGGGUA, the self-cleavage was 0.157. For GUCUUCUUUCACGUGCGCGUGAAAGAGAGAAGUGAACCAGAGAAACACAGGUUGUGGUAUAUUACCUGGUA, the self-cleavage turned out to be 0.11.
